{"source": "paper PMC3399080", "key": {"[1]": {"target": "Recombinant human insulin oxidized by metal-catalyzed oxidation (copper(II)/ascorbate) (human)", "test": "SEC; insulin oxidized in 50 mM sodium citrate, pH 3.0, 3 h at room temperature; same column and dissociating mobile phase; UV 276 nm; covalent aggregates only"}, "[2]": {"target": "Recombinant human insulin oxidized by metal-catalyzed oxidation (copper(II)/ascorbate) (human)", "test": "SEC; insulin oxidized in 250 mM ammonium bicarbonate, pH 8.0, 3 h at room temperature (ammonia competes for Michael addition); same column and dissociating mobile phase; UV 276 nm; covalent aggregates only"}, "[3]": {"target": "Recombinant human insulin oxidized by metal-catalyzed oxidation (copper(II)/ascorbate) (human)", "test": "SEC; insulin oxidized in 50 mM sodium citrate, pH 3.0, then exchanged into 50 mM PB, pH 7.4, and left 12 h at room temperature; same column and dissociating mobile phase; UV 276 nm; covalent aggregates only"}, "[4]": {"target": "Recombinant human insulin oxidized by metal-catalyzed oxidation (copper(II)/ascorbate) (human)", "test": "SEC; insulin oxidized in 50 mM PB, pH 7.4, 3 h at room temperature; Insulin HMWP column, mobile phase 1 g/L L-arginine in water/acetonitrile/glacial acetic acid 65:20:15, which dissociates non-covalent aggregates; UV 276 nm; covalent dimers and oligomers only"}}}
{"substance": "Recombinant human insulin oxidized by metal-catalyzed oxidation (copper(II)/ascorbate) (natural protein)", "values": [{"measurement": "%Dimer (covalent)", "setting": "[1]", "value": 0.8, "unit": "%"}, {"measurement": "%Dimer (covalent)", "setting": "[2]", "value": 3.9, "unit": "%"}, {"measurement": "%Dimer (covalent)", "setting": "[3]", "value": 9.3, "unit": "%"}, {"measurement": "%HMWO (covalent high-molecular-weight oligomers)", "setting": "[3]", "value": 1.9, "unit": "%"}, {"measurement": "%Dimer (covalent)", "setting": "[4]", "value": 18.8, "unit": "%"}, {"measurement": "%HMWO (covalent high-molecular-weight oligomers)", "setting": "[4]", "value": 6.8, "unit": "%"}]}
